This data set concerns the molecule itself. Put plainly: cross-linking; glutaraldehyde cross-linking, Western blot of PKM2 oligomers; Mtx2 KO H9C2 cells overexpressing MTX2 mutants, H/R. In general terms: A western blot detects proteins with antibodies after separation by electrophoresis.

Several values for one entry are separate records, joined by “and”; a condition that tells them apart may be missing. Equal entries are not always repeated.

B1: PKM2 in Mtx2 KO H9C2 cells (cross-linking) (enzyme)
chain: not shown
notes: pyruvate kinase PKM, splice isoform M2; also called dimeric PKM2; source: Mtx2 KO H9C2 cells overexpressing MTX2 mutants, H/R
With B1, the stoichiometry N (in general, a count of units in the complex or per binding partner) is 2 and 4.

(Values after article PMC12203670, “MTX2 facilitates PKM2 tetramerization to promote cardiac glucose metabolism and protects the heart against ischemia/reperfusion injury” (Theranostics, 2025).)
